Patent publication US20230358742A1 (MIT, published 2023)

T1: His-LSP (LMOf2365_0639, Listeria monocytogenes surface protein, with N-terminal 6x-histidine tag) (Listeria monocytogenes)
T1 construct: also called Listeria surface protein
T1 chain: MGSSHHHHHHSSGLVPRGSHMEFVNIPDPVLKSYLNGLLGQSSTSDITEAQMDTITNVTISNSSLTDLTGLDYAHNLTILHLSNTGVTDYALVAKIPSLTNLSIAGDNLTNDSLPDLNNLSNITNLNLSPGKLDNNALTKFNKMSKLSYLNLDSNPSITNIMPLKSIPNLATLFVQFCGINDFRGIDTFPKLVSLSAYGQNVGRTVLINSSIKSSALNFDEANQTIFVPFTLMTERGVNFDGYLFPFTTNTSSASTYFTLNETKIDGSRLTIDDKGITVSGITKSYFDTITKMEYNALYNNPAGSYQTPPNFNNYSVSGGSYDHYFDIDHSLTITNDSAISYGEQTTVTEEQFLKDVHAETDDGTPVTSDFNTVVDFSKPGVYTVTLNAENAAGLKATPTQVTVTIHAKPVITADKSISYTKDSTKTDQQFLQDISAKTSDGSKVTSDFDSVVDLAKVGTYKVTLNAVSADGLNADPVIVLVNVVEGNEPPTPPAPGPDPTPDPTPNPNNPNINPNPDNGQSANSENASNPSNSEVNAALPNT

B1: rcSso7d.LSP.7 (designed binder)
chain: MATVKFTYQGEEKQVDISKIKIAVYRYGQYIYFSYDEGGGASGIGKVSEKDAPKELLQMLEKQ
notes: also called clone 7; Clone 7
B2: rcSso7d.LSP.5 (designed binder)
chain: MATVKFTYQGEEKQVDISKIKWVRRAGQWIDFAYDEGGGAKGYGIVSEKDAPKELLQCWKS
notes: also called clone 5; Clone 5
B3: rcSso7d.LSP.3 (yeast-surface displayed) (designed binder)
chain: MATVKFTYQGEEKQVDISKIKIAKRYGQIIDFSYDEGGGARGWGIVSEKDAPKELLQMLEKQ
notes: also called clone 3; Clone 3

Target: T1, His-LSP (LMOf2365_0639, Listeria …)
Test: flow cytometry, clonal yeast-surface display, 20 nM His-LSP

Binder | binding result
B1 | binds
B2 | binds
MATVKFTYQGEEKQVDISKIKDVGRHGQHICFWL (designed binder, also called clone 6; Clone 6) [rcSso7d.LSP.6] | binds
MATVKFTYQGEEKQVDISKIKDVGRSGQNICFYL (designed binder, also called clone 1; Clone 1) [rcSso7d.LSP.1] | binds

Target: T1, His-LSP (LMOf2365_0639, Listeria …)
Test: FACS histograms, clonal yeast-surface display, 20 nM of LSP (FIG. 3B)

Binder | binding result
B3 | binds
MATVKFTYQGEEKQVDISKIKDVGRHGQKICFLL (designed binder, also called clone 2; Clone 2) [rcSso7d.LSP.2] | binds
MATVKFTYQGEEKQVDISKIKDVGRYGQRICFWL (designed binder, also called clone 4; Clone 4) [rcSso7d.LSP.4] | binds
